Data as given in patent US20030119102A1.

Molecular target: T1, rat Kv4.2 α-subunit (rat) (UniProt Q63881)
T1 sequence (looked up): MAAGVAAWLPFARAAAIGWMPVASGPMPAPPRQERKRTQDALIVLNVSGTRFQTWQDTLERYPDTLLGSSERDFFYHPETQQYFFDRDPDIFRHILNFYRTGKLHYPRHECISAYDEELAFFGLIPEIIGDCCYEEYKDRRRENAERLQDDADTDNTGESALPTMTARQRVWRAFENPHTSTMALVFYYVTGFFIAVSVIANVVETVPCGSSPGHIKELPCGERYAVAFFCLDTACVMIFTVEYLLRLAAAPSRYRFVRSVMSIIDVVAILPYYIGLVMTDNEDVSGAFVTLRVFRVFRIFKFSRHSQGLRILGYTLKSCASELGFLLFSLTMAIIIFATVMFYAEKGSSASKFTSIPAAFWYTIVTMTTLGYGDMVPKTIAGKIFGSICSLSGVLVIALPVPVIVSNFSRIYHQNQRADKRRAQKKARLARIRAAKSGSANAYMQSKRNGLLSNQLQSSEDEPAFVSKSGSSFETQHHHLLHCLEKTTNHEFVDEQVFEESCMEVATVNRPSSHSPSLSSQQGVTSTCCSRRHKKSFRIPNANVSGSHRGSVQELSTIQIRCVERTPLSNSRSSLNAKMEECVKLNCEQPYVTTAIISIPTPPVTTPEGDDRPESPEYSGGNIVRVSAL
Experiment: cell-based or functional assay

Inactivation time constant (ms, at 50 mV), CHO cells (rKv4.2 + vector: 28.2): 110 ms
Peak Current (nA/cell at 50 mV), CHO cells, patch clamp (rKv4.2 + vector: 0.60): 5.8 nA/cell
Peak Current Density (pA/pF at 50 mV), CHO cells (rKv4.2 + vector: 25.5): 203 pA/pF
Recovery from Inactivation Time constant, CHO cells (rKv4.2 + vector: 272.2): 36.1 ms
Substance: KChIP2ΔN2-67
